According to patent US7223537B2, “Detection of molecular interactions by reporter subunit complementation” (The Board of Trustees of the Leland Stanford Junior …, priority 1997, dated 2007):

Columns and labels:
human EGF receptor [1] = target: T1, human EGF receptor (Homo sapiens, UniProt P00533); assay: EGF receptor dimerization monitored by β-gal complementation (FACS) in C2F3 mouse myoblasts expressing chimeric receptors; format: cell-based
T1 construct: transmembrane domains of the human EGF receptor (amino acids 1–655) was amplified; expressed in transfected cells; host or cells: C2F3 mouse myoblasts, retrovirally transduced (pWZL-Δα-neo, pWZL-Δω-hygro), selected clone
Excerpt: (§1) Construction of chimeric receptors. The weakly complementing Δα and Δω deletion mutants of β-gal were each linked to a polypeptide sequence containing the extracellular and transmembrane domains of the human EGF receptor to form chimeric receptor molecules. The chimeric receptors lacked the cytoplasmic domain, and attendant tyrosine kinase activity, of the native receptor. The procedure was as follows. The sequence coding for the extracellular and transmembrane domains of the human EGF receptor (amino acids 1–655) was amplified by polymerase chain reaction (PCR) using primers that incorporated an NcoI site at the 5′ end and an XhoI site at the 3′ end of the PCR product. Although this fragment retains threonine 654, which is a site of protein kinase C (PKC) phosphorylation, arginines 656 and 657 are removed, destroying the consensus PKC recognition sequence. The amino acid sequence beginning with threonine 654 is thr-leu-glu-ser-met, with the met residue being the beginning of the β-gal sequence. The glu and ser codons are generated by the junction sequence and are not native to either EGF or β-gal.
(§2) DNAs encoding the chimeric receptors were inserted into a retroviral vector also encoding a selectable marker. For the construct containing the EGF receptor-Δα fusion, the selectable marker was the neo gene, encoding G418 resistance; while the EGF receptor-Δω fusion specified hygromycin resistance (FIG. 1B). Accordingly, the EGF receptor PCR product was digested and cloned into the NcoI and XhoI sites of the pWZL-Δα and pWZL-Δω vectors. The pWZL-Δα-neo and pWZL-Δω-hygro plasmids were constructed by cloning the lacZ Δα and Δω deletion mutants into pWZL-neo and pWZL-hygro, respectively. Mohler et al., supra; and Rossi et al. (1997) Proc. Natl. Acad. Sci. USA 94:8405–8410. Plasmids were transfected into φNX cells using Lipofectamine (Life Technologies), and virus-containing supernatant was harvested 48–72 hours later. C2F3 mouse myoblasts (Rastinejad et al. (1993) Cell 72:903–917) maintained in DME with 20% fetal bovine serum (FBS) in 10% CO2, were infected by overnight incubation in the viral supernatant. Cells containing both constructs were selected in 1 mg/ml G418 plus 1 mg/ml hygromycin, and were maintained in 400 μg/ml of each antibiotic.
(§3) EGF treatment and FACS analysis Cells were treated with mouse salivary gland EGF (Sigma) at 100 ng/ml and in some experiments were treated with tyrphostin AG1478 (Calbiochem) at 100 nM. Following all treatments, cells were rinsed with phosphate buffered saline (PBS), trypsinized, and resuspended in PBS+5% FBS. Fluorescein di-β-D-galactopyranoside (FDG; Molecular Probes) was loaded into the cells by hypotonic shock as described. Fiering et al. (1991) Cytometry 12:291–301 and Nolan et al. (1988) Proc. Natl. Acad. Sci. USA 85:2603–2607. Cells were kept on ice until analysis on the cell sorter, which was conducted 1 to 2 hours after trypsinization.
(§4) The chimeric receptor was detected by immunofluorescence using a monoclonal mouse anti-human EGF receptor antibody diluted 1:100 (clone EGFR1, Dako) and either phycoerythrin-labeled horse anti-mouse IgG (Vector) or fluorescein-labeled goat anti-mouse IgG (Cappel) diluted 1:100. Cells were trypsinized and stained in PBS+5% FBS. For each sample, FACS analysis data was collected for 5000 cells. Cells were cloned on a Becton-Dickinson FACS Vantage and analyzed on a Becton-Dickinson FACS can at the Stanford Shared FACS Facility. Data analysis was facilitated by FlowJo software (Tree Star, Inc.). Data shown here as FACS profiles were adjusted for autofluorescence using autofluorescence compensation. Alberti et al. (1987) Cytometry 8:114–119. Mean fluorescence data were adjusted for autofluorescence and for endogenous mammalian β-gal activity by subtracting the mean fluorescence of untransduced cells loaded with FDG substrate.

human EGF receptor [2] = test system: T2, human EGF receptor; assay: as above; format: cell-based
T2 construct: transmembrane domains of the human EGF receptor (amino acids 1–655) was amplified; expressed in transfected cells; host or cells: C2F3 mouse myoblasts, retrovirally transduced (pWZL-Δα-neo, pWZL-Δω-hygro), selected clone
Excerpt: as §1, §2, §3, §4

T2 sequence (Q01279 25-1210): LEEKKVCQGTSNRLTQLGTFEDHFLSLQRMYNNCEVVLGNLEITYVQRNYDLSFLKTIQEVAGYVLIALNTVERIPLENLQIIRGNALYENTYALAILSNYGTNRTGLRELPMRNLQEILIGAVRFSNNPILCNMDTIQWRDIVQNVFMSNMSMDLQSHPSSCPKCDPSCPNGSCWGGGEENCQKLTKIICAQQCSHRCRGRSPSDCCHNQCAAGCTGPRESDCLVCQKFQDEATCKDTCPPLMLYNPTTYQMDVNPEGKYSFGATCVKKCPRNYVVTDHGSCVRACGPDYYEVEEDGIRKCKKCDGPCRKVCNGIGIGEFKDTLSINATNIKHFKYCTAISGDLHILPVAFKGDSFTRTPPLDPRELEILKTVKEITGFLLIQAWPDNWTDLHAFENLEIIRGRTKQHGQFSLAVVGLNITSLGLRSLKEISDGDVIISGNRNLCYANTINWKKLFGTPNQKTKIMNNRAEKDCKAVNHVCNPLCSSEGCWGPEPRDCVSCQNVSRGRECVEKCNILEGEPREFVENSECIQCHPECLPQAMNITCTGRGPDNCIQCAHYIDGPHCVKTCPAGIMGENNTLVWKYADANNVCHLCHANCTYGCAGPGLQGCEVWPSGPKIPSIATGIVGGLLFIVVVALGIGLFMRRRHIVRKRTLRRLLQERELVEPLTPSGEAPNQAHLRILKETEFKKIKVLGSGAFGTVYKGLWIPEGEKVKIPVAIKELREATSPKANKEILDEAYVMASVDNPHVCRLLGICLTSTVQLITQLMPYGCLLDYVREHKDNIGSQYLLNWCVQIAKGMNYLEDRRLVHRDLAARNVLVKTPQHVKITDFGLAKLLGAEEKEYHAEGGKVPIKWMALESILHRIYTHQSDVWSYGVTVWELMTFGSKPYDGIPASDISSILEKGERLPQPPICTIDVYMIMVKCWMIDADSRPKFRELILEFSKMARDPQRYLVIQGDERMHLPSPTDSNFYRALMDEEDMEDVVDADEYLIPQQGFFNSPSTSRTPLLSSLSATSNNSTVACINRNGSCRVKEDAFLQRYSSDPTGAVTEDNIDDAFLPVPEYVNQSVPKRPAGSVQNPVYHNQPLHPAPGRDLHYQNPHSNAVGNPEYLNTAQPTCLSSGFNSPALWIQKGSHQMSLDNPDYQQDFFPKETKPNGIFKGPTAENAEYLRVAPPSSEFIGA

EGF: mouse salivary gland EGF (Sigma)
time at which dimerization peaked (human EGF receptor [1]; 100 ng/ml EGF for 0 to 24 hours, FIG. 8): 2 to 4 h | increase in β-gal activity (chimeric receptor dimerization) in selected clone (human EGF receptor [1]; 100 ng/ml EGF for two hours, FIG. 7E): several-fold increase | shortest EGF treatment at which dimerization could be detected (human EGF receptor [1]; 100 ng/ml EGF, mean fluorescence, FIG. 7F): one | amount of chimeric receptor on the cell surface (immunofluorescence, FACS) (human EGF receptor [1]; 100 ng/ml EGF, over the period that dimerization decreased, FIG. 8): remained essentially constant | response (dimerization) to a second EGF treatment (human EGF receptor [1]; during the decline in dimerization, EGF still present): minimal

betacellulin: EGF-like growth factor that binds and activates the EGF receptor
dimerization of chimeric EGF receptor following stimulation with EGF-like growth factor (human EGF receptor [1]): Dimerization was also observed

TGF-α: EGF-like growth factor that binds and activates the EGF receptor
dimerization of chimeric EGF receptor following stimulation with EGF-like growth factor (human EGF receptor [1]): Dimerization was also observed

COc1cc2ncnc(Nc3cccc(Cl)c3)c2cc1OC [tyrphostin AG1478, reference compound]
β-gal activity of cells given tyrphostin and EGF versus EGF alone (human EGF receptor [2]; 100 nM tyrphostin AG1478 + 100 ng/ml EGF, treatment times of up to 6 hours, FIG. 9B): greater β-gal activity than cells that received EGF alone | difference in EGF receptor dimerization between EGF and EGF+tyrphostin treated cells (human EGF receptor [2]; by 8 hours of treatment): no difference | effect of repeated administration of tyrphostin on the increased β-gal activity (human EGF receptor [2]; tyrphostin every four hours): did not further prolong the increased β-gal activity

heparin-binding EGF-like growth factor: EGF-like growth factor that binds and activates the EGF receptor
dimerization of chimeric EGF receptor following stimulation with EGF-like growth factor (human EGF receptor [1]): Dimerization was also observed
